The target in assay [1] is T1, recombinant human Fc gamma RI (CD64) (human, UniProt P12314 16-288).
The target in assay [2] is T2, recombinant human Fc gamma RIIa (CD32a) 131R (human, UniProt P12318 36-218).
T2 sequence (looked up): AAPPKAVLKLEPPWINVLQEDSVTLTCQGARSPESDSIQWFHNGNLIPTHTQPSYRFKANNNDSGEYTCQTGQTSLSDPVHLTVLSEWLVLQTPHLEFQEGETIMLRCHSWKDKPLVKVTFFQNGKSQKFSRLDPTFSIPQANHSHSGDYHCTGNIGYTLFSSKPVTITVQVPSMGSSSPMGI

Assay [3] addresses T3, recombinant human Fc gamma RIIIa (CD16a) 158V (human, UniProt P08637 17-208).
In assay [4] the target is T4, recombinant human Fc gamma RIIIb (CD16b) (human, UniProt O75015 17-200).
For assay [5], the target named is T5, recombinant human Fc gamma RIIa (CD32a) 131H (human, UniProt P12318 36-218).
T5 sequence (looked up): T2 sequence (looked up) with R132H

Assay [6] deals with T6, recombinant human Fc gamma RIIIa (CD16a) 158F (human, UniProt P08637 17-208).
Assay [7] has as its target T7, recombinant human Fc gamma RIIb/c (CD32b/c) (human, UniProt P31994 46-217).
T7 sequence (looked up): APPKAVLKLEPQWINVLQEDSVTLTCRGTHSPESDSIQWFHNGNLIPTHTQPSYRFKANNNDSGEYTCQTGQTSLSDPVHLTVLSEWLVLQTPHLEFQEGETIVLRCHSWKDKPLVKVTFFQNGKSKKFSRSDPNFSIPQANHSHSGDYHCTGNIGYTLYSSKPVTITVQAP

Assay [8] concerns the target T1, recombinant human Fc gamma RI (CD64). The source holds these as a separate data set.
For assay [9], the target named is T2, recombinant human Fc gamma RIIa (CD32a) …. The source holds these as a separate data set.
Assay [10] deals with T7, recombinant human Fc gamma RIIb/c …. This is another data set of the same source.
In a further assay the target is T8, recombinant human CD19 (human, UniProt P15391 20-291).
T8 sequence (looked up): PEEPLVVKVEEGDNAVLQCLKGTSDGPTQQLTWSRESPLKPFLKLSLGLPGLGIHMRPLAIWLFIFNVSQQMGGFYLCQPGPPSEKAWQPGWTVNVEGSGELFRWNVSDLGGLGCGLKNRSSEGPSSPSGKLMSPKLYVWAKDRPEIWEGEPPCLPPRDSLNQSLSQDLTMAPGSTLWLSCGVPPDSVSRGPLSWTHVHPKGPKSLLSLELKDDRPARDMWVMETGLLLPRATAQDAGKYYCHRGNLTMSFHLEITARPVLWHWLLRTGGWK

Assay [11] deals with T9, recombinant human full-length CD20 (human, UniProt P11836 1-297).
T9 sequence (looked up): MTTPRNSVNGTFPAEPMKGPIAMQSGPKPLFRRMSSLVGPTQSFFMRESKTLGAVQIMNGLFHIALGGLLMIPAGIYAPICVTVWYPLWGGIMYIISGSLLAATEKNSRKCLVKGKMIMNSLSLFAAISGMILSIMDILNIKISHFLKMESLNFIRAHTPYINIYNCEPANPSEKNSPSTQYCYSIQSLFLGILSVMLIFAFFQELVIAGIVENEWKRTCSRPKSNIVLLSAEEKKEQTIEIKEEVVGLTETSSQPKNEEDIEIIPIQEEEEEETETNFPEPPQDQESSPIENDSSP

Assay [12] addresses T10, cynomolgus monkey Fc gamma receptor CD16 (cynomolgus monkey, UniProt Q8SPW2 17-208).
Assay [13] addresses T11, cynomolgus monkey Fc gamma receptor CD32a (cynomolgus monkey).
For assay [14], the target named is T12, cynomolgus monkey Fc gamma receptor CD32b (cynomolgus monkey).
Assay [15] has as its target T10, cynomolgus monkey Fc gamma receptor CD16. The source holds these as a separate data set.
Assay [16] deals with T11, cynomolgus monkey Fc gamma receptor …. This is another data set of the same source.
In assay [17] the target is T12, cynomolgus monkey Fc gamma receptor …. The source holds these as a separate data set.
The target of assay [18] is T3, recombinant human Fc gamma RIIIa …. The source holds these as a separate data set.
In assay [19] the target is T4, recombinant human Fc gamma RIIIb (CD16b). The source holds these as a separate data set.
For assay [20], the target named is T6, recombinant human Fc gamma RIIIa …. The source holds these as a separate data set.
In assay [21] the target is T13, recombinant cynomolgus monkey CD19 (cynomolgus monkey, UniProt A0A2K5W8L9 20-292).
T13 sequence: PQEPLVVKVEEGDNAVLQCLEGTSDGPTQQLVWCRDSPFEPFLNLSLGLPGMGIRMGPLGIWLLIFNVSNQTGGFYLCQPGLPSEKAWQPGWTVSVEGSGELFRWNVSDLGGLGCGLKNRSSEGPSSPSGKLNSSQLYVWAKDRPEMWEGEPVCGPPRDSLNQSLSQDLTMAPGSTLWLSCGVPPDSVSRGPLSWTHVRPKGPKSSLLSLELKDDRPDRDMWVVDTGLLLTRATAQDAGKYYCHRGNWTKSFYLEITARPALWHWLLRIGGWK

Assay [22] deals with T14, recombinant cynomolgus monkey CD20 (cynomolgus monkey, UniProt M4ZHZ6 1-297).
T14 sequence: T9 sequence (looked up) with S25P, F31L, T51A, A157V, K217R, N226S, I227V, T239V

Where a chain is given by its changes, count along the chain named. Where two headings read alike, the source gives them in different places. Some results are limits rather than exact numbers.

One may read the Kd as a measure of binding affinity in units of concentration.

T4 sequence (O75015 17-200 limits assumed): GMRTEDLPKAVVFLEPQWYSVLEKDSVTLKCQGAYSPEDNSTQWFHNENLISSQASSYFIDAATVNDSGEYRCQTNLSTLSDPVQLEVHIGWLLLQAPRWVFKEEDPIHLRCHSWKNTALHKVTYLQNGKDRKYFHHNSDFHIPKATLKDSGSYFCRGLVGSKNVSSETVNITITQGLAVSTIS
T3 sequence (P08637 17-208 F176V limits assumed): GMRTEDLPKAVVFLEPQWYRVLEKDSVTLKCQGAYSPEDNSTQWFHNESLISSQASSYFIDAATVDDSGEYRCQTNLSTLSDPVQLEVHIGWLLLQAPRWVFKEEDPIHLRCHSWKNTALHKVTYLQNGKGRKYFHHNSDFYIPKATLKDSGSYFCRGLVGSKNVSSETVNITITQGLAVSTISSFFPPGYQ
T10 sequence (Q8SPW2 17-208 limits assumed): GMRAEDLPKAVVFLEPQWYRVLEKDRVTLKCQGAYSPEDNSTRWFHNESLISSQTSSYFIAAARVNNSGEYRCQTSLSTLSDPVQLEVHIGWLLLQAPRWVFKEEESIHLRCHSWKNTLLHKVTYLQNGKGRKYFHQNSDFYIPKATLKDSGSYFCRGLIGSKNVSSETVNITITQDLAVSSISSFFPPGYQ
T6 sequence (P08637 17-208 limits assumed): as the sequence (P08637 17-208 F176V limits assumed) above, with V160F counted along it
T1 sequence (P12314 16-288 limits assumed): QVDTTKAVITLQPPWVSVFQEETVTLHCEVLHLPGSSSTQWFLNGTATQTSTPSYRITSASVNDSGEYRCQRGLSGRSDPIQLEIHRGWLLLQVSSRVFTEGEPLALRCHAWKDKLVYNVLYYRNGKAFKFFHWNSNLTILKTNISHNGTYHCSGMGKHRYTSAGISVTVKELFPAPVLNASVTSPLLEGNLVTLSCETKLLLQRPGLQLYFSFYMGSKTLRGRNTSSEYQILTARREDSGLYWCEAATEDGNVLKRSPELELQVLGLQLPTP

B1: B19c66AAC9 (antibody, human IgG1, kappa)
light: not shown
heavy: QVQLQQSGAELVRPGSSVKISCKASGYAFSSYWMNWVKQRPGQGLEWIGQIWPGDGDTNYNGKFKGKATLTADESSSTAYMQLSSLASEDSAVYFCARRETTTVGRYYYAMDYWGQGTTVTVSSASTKGPSVFPLAPSSKSTSGGTAALGCLVKDYFPEPVTVSWNSGALTSGVHTFPAVLQSSGLYSLSSVVTVPSSSLGTQTYICNVNHKPSNTKVDKKVEPKSCDKTHTCPPCPAPKRRGGPSVFLFPPKPKDTLMISRTPEVTCVVVDVSHEDPEVKFNWYVDGVEVHNAKTKPREEQYNSTYRVVSVLTVLHQDWLNGKEYKCKVSNKALPAPIEKTISKAKGQPREPQVYVLPPSRDELTKNQVSLLCLVKGFYPSDIAVEWESNGQPENNYLTWPPVLDSDGSFFLYSKLTVDKSRWQQGNVFSCSVMHEALHNHYTQKSLSLSPGK
chain: CPPCPAPEDEGGPSVFLFPPKPKDTLMISRTPEVTCVVVDVSHEDPEVKFNWYVDGVEVHNAKTKPREEQYNSTYRVVSVLTVLHQDWLNGKEYKCKVSNKALPAPIEKTISKAKGQPREPQVYVYPPSRDELTKNQVSLTCLVKGFYPSDIAVEWESNGQPENNYKTTPPVLDSDGSFALVSKLTVDKSRWQQGNVFSCSVMHEALHNHYTQKSLSLSPGK
Molecule B1 came in with a Kd with CD19 (target of Table 9) of 21 nM.

B2: HB2198 (bispecific antibody, human IgG1, kappa)
heavy 1: QVQLVQSGGGVVQPGRSLRLSCAASGVSLPDYGVSWVRKAPGKGLEWVAVIWGSETTYYNSALKSRFTISRDNSKNTLYLQMSSLRAEDTAVYYCAKHYYYGGSFAMDYWGQGTLVTVSSASTKGPSVFPLAPSSKSTSGGTAALGCLVKDYFPEPVTVSWNSGALTSGVHTFPAVLQSSGLYSLESVVTVPSSSLGTQTYICNVNHKPSNTKVDKKVEPKSCTDWSPYADQSIKVRISLKSALGDKAYEWNDNEMYLFRSSVAYAMRQYFLKVKNQMILFGEEDVRVANLKPRISFNFFVTAPKNVSDIIPRTEVEKAIRMSRSRINDAFRLNDNSLEFLGIQPTLGPPNQPPVSTSTSPTRSMAPGAVHLPQPVSTRDKTHTCPPCPAPELLGGPDVFLFPPKPKDTLMISRTPEVTCVVVDVSHEDPEVKFNWYVDGVEVHNAKTKPREEQYNSTYRVVSVLTVLHQDWLNGKEYKCKVSNKALPAPEEKTISKAKGQPREPQVCTLPPSRDELTKNQVSLSCAVKGFYPSDIAVEWESNGQPENNYKTTPPVLDSDGSFFLVSKLTVDKSRWQQGNVFSCSVMHEALHNRFTQKSLSLSPG
heavy 2: QIVLSQSPAILSASPGEKVTMTCRASSSVSYIHWFQKKPGSSPKPWIYATSNLASGVPVRFSGSGSGTSYSLTISRVEAEDAATYYCQQWTSNPPTFGGGTKVEIKSSASTKGPSVFPLAPSSKSTSGGTAALGCLVKDYFPEPVTVSWNSGALTSGVHTFPAVLQSSGLYSLKSVVTVPSSSLGTQTYICNVNHKPSNTKVDKKVEPKSCDKTHTCPPCPAPELLGGPDVFLFPPKPKDTLMISRTPEVTCVVVDVSHEDPEVKFNWYVDGVEVHNAKTKPREEQYNSTYRVVSVLTVLHQDWLNGKEYKCKVSNKALPAPEEKTISKAKGQPREPQVYTLPPCRDELTKNQVSLWCLVKGFYPSDIAVEWESNGQPENNYKTTPPVLDSDGSFFLYSKLTVDKSRWQQGNVFSCSVMHEALHNHYTQKSLSLSPG
light 1: DIQMTQSPSSLSASVGDRVTITCRASQDISKYLNWYQEKPGKAIKLLIYHTSRLHSGVPSRFSGSGSGTDFTLTISSLQPEDFATYYCQQGATLPYTFGPGTKLEIKRTVAAPSVFIFPPSDEQLKSGTASVKCLLNNFYPREAKVQWKVDNALQSGNSQESVTEQDSKDSTYSLSSTLTLSKADYEKHKVYACEVTHQGLSSPVTKSFNRGEC
light 2: QVQLQQPGAELVKPGASVKMSCKASGYTFTSYNMHWVKETPGRGLEWIGAIYPGNGDTSYNQKFKGKATLTADKSSSTAYMQLSSLTSEDSAVYYCARSTYYGGDWYFNVWGAGTLVTVSSASVAAPSVFIFPPSDEQLKSGTASVECLLNNFYPREAKVQWKVDNALQSGNSQESVTEQDSKDSTYSLSSTLTLSKADYEKHKVYACEVTHQGLSSPVTKSFNRGEC
Consider B2, for which the Kd in assay [1] was less than 0.02 nM; in assay [2], less than 2 nM; in assay [3], less than 2 nM; in assay [4] it was less than 2 nM; in assay [5], less than 2 nM; in assay [6] it was less than 2 nM. Also, the Kd was 2.2 nM in assay [7]; less than 0.02 nM in assay [8]; 128 nM in assay [9]; 283 nM in [10]; 1.5 nM in the assay with recombinant human CD19; 0.2 nM in [11]. For the same molecule, the Kd in assay [12] is 2 nM; in [13] it was 4 nM; in assay [14], 3.4 nM; in assay [15], 1.76 nM; in [16], 305 nM; in [17] it was 218 nM. For the same molecule, the dissociation constant Kd in assay [18] worked out at 4.19 nM; in [19] it was 95 nM; in [20], 15.7 nM; in assay [21] it was 410 nM; in assay [22] it was 1.4 nM.

(Values after US20250084169A1 (published 2025).)
